According to patent US20030060605A1 (LA JOLLA INSTITUTE FOR ALLERGY AND IMMUNOLOGY, published 2003):

Experiments:
[1] = target: p30 (LIGHT), the 30 kDa cell surface HVEM ligand of activated II-23.D7 T hybridoma cells and human T cells (human) (UniProt O43557); assay: competition flow cytometry: II-23.D7 cells activated with PMA and ionomycin, pre-incubated with the Fc protein, then HVEM:Fc-rabbit 2 µg/ml, goat anti-rabbit IgG-PE; competitor displaced: HVEM:rbFc [lower graph]
[2] = target: HVEM:Fc fusion protein (extracellular region of HVEM, 1 to K184, fused to the Fc of human IgG1) (human) (UniProt Q92956); assay: SPR (BIAcore 1000), receptor:Fc amine-coupled to CM5, LIGHT mutant as analyte
[3] = target: HVEM:Fc fusion protein (extracellular region of HVEM, 1 to K184, fused to the Fc of human IgG1) (human) (UniProt Q92956); assay: SPR (BIAcore 1000)
[4] = target: LTβR on the surface of human cells (HT29, NHDF) (human) (UniProt P36941); assay: cell-based or functional assay
human LTβR:Fc (human) [5] = target: human LTβR:Fc (human) (UniProt P36941); assay: ELISA, receptor:Fc coated as capture (150 ng/well), FLAG-tagged ligand, M2 anti-FLAG and goat anti-mouse HRP, OD 415 [panel Human LTβR:Fc]
human LTβR:Fc (human) [6] = target: human LTβR:Fc (human) (UniProt P36941); assay: SPR (BIAcore 1000), receptor:Fc amine-coupled to CM5, LIGHT as analyte 100-500 nM
[7] = target: HVEM:Fc fusion protein (extracellular region of HVEM, 1 to K184, fused to the Fc of human IgG1) (human) (UniProt Q92956); assay: as above
[8] = target: mouse LTβR:Fc (residues 1 to Met221 of the extracellular domain of mouse LTβR) (mouse) (UniProt P50284); assay: ELISA, receptor:Fc as capture, M2 anti-FLAG detection
[9] = target: mouse HVEM:Fc (extracellular region of mouse HVEM, Met1 to Ser205, fused to the Fc of human IgG1) (mouse; human) (UniProt Q80WM9); assay: as above
human LTβR:Fc (human) [10] = target: human LTβR:Fc (human) (UniProt P36941); assay: SPR (BIAcore 1000), receptor:Fc amine-coupled to CM5, LIGHT mutant as analyte
[11] = target: HVEM:Fc fusion protein (extracellular region of HVEM, 1 to K184, fused to the Fc of human IgG1) (human) (UniProt Q92956); assay: ELISA, receptor:Fc coated as capture (150 ng/well), FLAG-tagged ligand, M2 anti-FLAG and goat anti-mouse HRP, OD 415 [panel human HVEM:Fc]
[12] = target: mouse HVEM:Fc (extracellular region of mouse HVEM, Met1 to Ser205, fused to the Fc of human IgG1) (mouse; human) (UniProt Q80WM9); assay: ELISA, receptor:Fc coated as capture (150 ng/well), FLAG-tagged ligand, M2 anti-FLAG and goat anti-mouse HRP, OD 415 [panel mouse HVEM:Fc]
[13] = target: T1, p30 (LIGHT), the 30 kDa cell surface HVEM ligand of activated II-23.D7 T hybridoma cells and human T cells (human, UniProt O43557 1-240); assay: competition flow cytometry: II-23.D7 cells activated with PMA and ionomycin, pre-incubated with the Fc protein, then HVEM:Fc-rabbit 2 µg/ml, goat anti-rabbit IgG-PE [lower graph]
T1 construct: whole, on cells; On the cell surface in flow cytometry; in NP40 detergent extracts in the precipitations

[14] = target: LTβR on the surface of human cells (HT29, NHDF) (human, UniProt P36941 31-435); assay: cell-based or functional assay
[15] = target: T2, HVEM:Fc fusion protein (extracellular region of HVEM, 1 to K184, fused to the Fc of human IgG1) (human, UniProt Q92956 39-184); assay: competition flow cytometry: HVEM:Fc pre-incubated with the ligand 30 min at 4 C, then added to II-23.D7 cells activated with PMA and ionomycin (p30 on the cells), anti-huIgG-PE [lower graph]
T2 construct: range 1-184; Made in the baculovirus vector pVL1392; Residues 1-184 include the signal peptide; also called huHVEM:Fc; hu HVEM:Fc; not shown: Fc of human IgG1
T2 sequence (looked up): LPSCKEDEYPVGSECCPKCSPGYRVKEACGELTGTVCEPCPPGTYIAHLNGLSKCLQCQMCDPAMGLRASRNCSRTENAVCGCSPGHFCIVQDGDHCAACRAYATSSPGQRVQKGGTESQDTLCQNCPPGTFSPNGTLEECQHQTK

[16] = target: T2, HVEM:Fc fusion protein (extracellular …); assay: competition flow cytometry: HVEM:Fc pre-incubated with the ligand, then added to II-23.D7 cells activated with PMA and ionomycin (p30 on the cells), anti-huIgG-PE [lower graph]
[17] = target: T2, HVEM:Fc fusion protein (extracellular …); assay: competition flow cytometry: HVEM:Fc 2 µg/ml pre-incubated with the gD-1 protein 30 min at 4 C, then added to II-23.D7 cells activated with PMA and ionomycin (p30 on the cells) [lower graph]

T1 sequence (O43557 whole entry): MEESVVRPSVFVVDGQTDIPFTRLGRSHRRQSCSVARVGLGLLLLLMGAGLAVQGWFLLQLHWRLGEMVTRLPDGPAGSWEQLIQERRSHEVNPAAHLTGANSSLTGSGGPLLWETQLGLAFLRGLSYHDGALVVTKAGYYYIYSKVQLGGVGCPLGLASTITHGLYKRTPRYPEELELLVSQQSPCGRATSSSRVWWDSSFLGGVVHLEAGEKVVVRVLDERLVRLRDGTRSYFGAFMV
Chain of p30 (LIGHT), the 30 kDa cell surface HVEM ligand of activated II-23.D7 T hybridoma cells and human T cells (human) (O43557 whole entry, the tested form may be a part): as the sequence (O43557 whole entry) above
Chain of mouse LTβR:Fc (residues 1 to Met221 of the extracellular domain of mouse LTβR) (mouse) (P50284 31-221): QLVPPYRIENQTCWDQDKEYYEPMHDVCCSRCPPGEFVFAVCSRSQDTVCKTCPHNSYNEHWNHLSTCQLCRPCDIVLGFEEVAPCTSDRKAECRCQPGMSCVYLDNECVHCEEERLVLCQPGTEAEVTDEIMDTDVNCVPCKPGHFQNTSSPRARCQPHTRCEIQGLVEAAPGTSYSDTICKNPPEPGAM

Question: How did the IC50 (read off the curve) [1] turn out when “LTβR:Fc (as printed in Examples 1 to 4; human or mouse not said) (Fc fusion)” was run?
Answer: 10 µg/mL

Question: With LIGHTt66-FLAG mutant G119E (ligand) as the molecule, how does the Kd [2] read?
Answer: 114 nM

Question: What about the koff [2] of the same molecule?
Answer: 0.002 s⁻¹

Question: And the kon [2]?
Answer: 18000 M⁻¹ s⁻¹

Question: And the fold lower affinity than LIGHT t66 [3]?
Answer: 30 fold

Question: And the up-regulation of ICAM expression by NHDF cells (fold induction, flow cytometry) [4]?
Answer: < 1.5 fold

Question: With “LIGHTt66-FLAG, recombinant soluble homotrimeric LIGHT lacking the N-terminal 66 amino acids (ligand)” as the molecule, how does the EC50 (read off the curve) (human LTβR:Fc (human) [5]) read?
Answer: 0.3 nM

Question: And the Kd (human LTβR:Fc (human) [6])?
Answer: 4.5 nM

Question: And the koff (human LTβR:Fc (human) [6])?
Answer: 0.00012 s⁻¹

Question: What about the kon (human LTβR:Fc (human) [6]) of the same molecule?
Answer: 27000 M⁻¹ s⁻¹

Question: What about the Kd [7] of the same molecule?
Answer: 3.9 nM

Question: And the koff [7]?
Answer: 4.8e-05 s⁻¹

Question: What about the kon [7] of the same molecule?
Answer: 12000 M⁻¹ s⁻¹

Question: What about the fold lower affinity (against the human receptors) [8] of the same molecule?
Answer: 10 fold

Question: What about the fold lower affinity (against the human receptors) [9] of the same molecule?
Answer: 10 fold

Question: What about the IC50 for inhibition of pp28 expression (HCMV infected NHDF, western blot) [4] of the same molecule?
Answer: 0.4 nM

Question: And the concentration that completely inhibits the cytopathic effect of HCMV [4]?
Answer: 100 pM

Question: What about the dose for 50% cytotoxicity to HT29 cells (MTT, with IFNγ) [4] of the same molecule?
Answer: 10 to 100 pM

Question: And the up-regulation of ICAM expression by NHDF cells (fold induction, flow cytometry) [4]?
Answer: 4 fold

Question: What does the source list for LIGHTt66-FLAG mutant Y173F (ligand)?
Answer: Kd (human LTβR:Fc (human) [10]): 31 nM; koff (human LTβR:Fc (human) [10]): 0.0011 s⁻¹; kon (human LTβR:Fc (human) [10]): 37000 M⁻¹ s⁻¹; Kd [2]: 173 nM; koff [2]: 0.0033 s⁻¹; kon [2]: 19000 M⁻¹ s⁻¹; Kd [3]: 180 nM; fold lower affinity than LIGHT t66 [3]: > 40 fold; 50% cell death of HT29 cells (MTT, 72 h, with IFNγ) [4]: 0.001 µM; up-regulation of ICAM expression by NHDF cells (fold induction, flow cytometry) [4]: 2.5 fold

Question: For LIGHTt66-FLAG mutant L120Q (ligand), which EC50 (read off the curve) [11] is on record?
Answer: 0.08 nM

Question: And the 50% cell death of HT29 cells (MTT, 72 h, with IFNγ) [4]?
Answer: 10 µM

Question: With LIGHTt66-FLAG mutant Q117T (ligand) as the molecule, how does the Kd (human LTβR:Fc (human) [10]) read?
Answer: 1.5 nM

Question: And the koff (human LTβR:Fc (human) [10])?
Answer: 4.5e-05 s⁻¹

Question: What about the Kd [2] of the same molecule?
Answer: 0.3 nM

Question: What about the kon [2] of the same molecule?
Answer: 20000 M⁻¹ s⁻¹

Question: And the EC50 (read off the curve) [12]?
Answer: 0.9 nM

Question: What about the 50% cell death of HT29 cells (MTT, 72 h, with IFNγ) [4] of the same molecule?
Answer: 10 µM

B1: Fas:Fc (Fc fusion, UniProt P25445 26-173, looked up)
chain: QVTDINSKGLELRKTVTTVETQNLEGLHHDGQFCHKPCPPGERKARDCTVNGDEPDCVPCQEGKEYTDKAHFSSKCRRCRLCDEGHGLEVEINCTRTQNTKCRCKPNFFCNSTVCEHCDPCTKCEHGIIKECTLTSNTKCKEEGSRSN
notes: not shown: Fc region of human IgG1
Question: Does B1 bind [13]?
Answer: no binding

B2: recombinant soluble LTα1β2 (ligand)
chain 1: LPGVGLTPSAAQTARQHPKMHLAHSTLKPAAHLIGDPSKQNSLLWRANTDRAFLQDGFSLSNNSLLVPTSGIYFVYSQVVFSGKAYSPKATSSPLYLAHEVQLFSSQYPFHVPLLSSQKMVYPGLQEPWLHSMYHGAAFQLTQGDQLSTHTDGIPHLVLSPSTVFFGAFAL
chain 2: QDQGGLVTETADPGAQAQQGLGFQKLPEEEPETDLSPGLPAAHLIGAPLKGQGLGWETTKEQAFLTSGTQFSDAEGLALPQDGLYYLYCLVGYRGRAPPGGGDPQGRSVTLRSSLYRAGGAYGPGTPELLLEGAETVTPVLDPARRQGYGPLWYTSVGFGGLVQLRRGERVYVNISHPDMVDFARGKTFFGAVMVG
Question: Which “IC50 for inhibition of pp28 expression (HCMV infected NHDF, western blot)” value [14] does the source give for B2 here?
Answer: 1 nM

B3: LTα homotrimer (ligand, UniProt P01374 35-205, looked up)
chain: LPGVGLTPSAAQTARQHPKMHLAHSTLKPAAHLIGDPSKQNSLLWRANTDRAFLQDGFSLSNNSLLVPTSGIYFVYSQVVFSGKAYSPKATSSPLYLAHEVQLFSSQYPFHVPLLSSQKMVYPGLQEPWLHSMYHGAAFQLTQGDQLSTHTDGIPHLVLSPSTVFFGAFAL
notes: One entry for the recombinant protein and for the native LTα (23-25 kDa, and the 23 kDa precursor) of the human II-23.D7 cells; also called recombinant LTα; secreted LTα
Question: How did the “IC50 (read off the curve)” value [15] turn out when B3 was run?
Answer: ~30 nM

Question: And the “IC50 (read off the curve)” value [16]?
Answer: ~50 nM

B4: soluble HSV gD-1 (glycoprotein D of HSV-1) (ligand)
chain: KYALVDASLKMADPNRFRGKDLPVLDQLTDPPGVRRVYHIQAGLPDPFQPPSLPITVYYAVLERACRSVLLNAPSEAPQIVRGASEDVRKQPYNLTIAWFRMGGNCAIPITVMEYTECSYNKSLGACPIRTQPRWNYYDSFSAVSEDNLGFLMHAPAFETAGTYLRLVKINDWTEITQFILEHRAKGSCKYALPLRIPPSACLSPQAYQQGVTVDSIGMLPRFIPENQRTVAVYSLKIAGWHGPKAPYTSTLLPPELSETPNATQPELAPEDPEDSALLEDPVGTVAPQIPPNWHIPSIQDAATPY
Question: B4 was tested. Which “IC50 (read off the curve)” value [17] did it give?
Answer: ~20 µg/mL

B5: gD-1 (Δ290-299t), mutant of soluble HSV gD-1 (ligand)
chain: KYALVDASLKMADPNRFRGKDLPVLDQLTDPPGVRRVYHIQAGLPDPFQPPSLPITVYYAVLERACRSVLLNAPSEAPQIVRGASEDVRKQPYNLTIAWFRMGGNCAIPITVMEYTECSYNKSLGACPIRTQPRWNYYDSFSAVSEDNLGFLMHAPAFETAGTYLRLVKINDWTEITQFILEHRAKGSCKYALPLRIPPSACLSPQAYQQGVTVDSIGMLPRFIPENQRTVAVYSLKIAGWHGPKAPYTSTLLPPELSETPNATQPELAPEDPEDSALLEDPVGTVAPQQDAATPY
Question: How did the “IC50 (read off the curve)” value [17] turn out when B5 was run?
Answer: ~6 µg/mL
